Like-named read-outs stand apart in the source and are kept apart here. Square brackets hold non-standard residues; d marks the D form. Ends that are not written are not given here. Lys(Me3) = C[N+](C)(C)CCCC[C@H](N)C(=O)O

The target of test [1] is His6-tagged Cbx3 chromodomain (peptide arrays) (human, UniProt Q13185 29-81). Put plainly: peptide or protein array.
In test [2] the target is T1, Cbx7 chromodomain, Cbx7-(8–62) (human, UniProt O95931 8-62).
T1 sequence: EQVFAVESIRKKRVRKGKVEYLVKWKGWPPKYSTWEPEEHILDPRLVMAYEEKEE

Test [3] has as its target Cbx1 chromodomain, Cbx1-(20–73) (human, UniProt P83916 20-73). In words: fluorescence polarisation. (In general: In fluorescence polarisation assays a small probe gives low polarisation when free and higher when bound to something large.)
The target in test [4] is T2, Cbx4 chromodomain, Cbx4-(8–65) (human, UniProt O00257 8-65).
T2 sequence: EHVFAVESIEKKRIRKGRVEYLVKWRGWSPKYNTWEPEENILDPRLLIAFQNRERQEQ
In words: fluorescence polarisation.

For test [5], the target named is Cbx5 chromodomain, Cbx5-(18–75) (human, UniProt P45973 18-75). Put plainly: fluorescence polarisation.
Test [6] concerns the target T3, Cbx8 chromodomain, Cbx8-(8–61) (human, UniProt Q9HC52 8-61).
T3 sequence: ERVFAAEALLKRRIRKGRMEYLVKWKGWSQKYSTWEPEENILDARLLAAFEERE

The target in test [7] is T4, Cbx2 chromodomain, Cbx2-(9–66) (human, UniProt Q14781 9-66).
T4 sequence: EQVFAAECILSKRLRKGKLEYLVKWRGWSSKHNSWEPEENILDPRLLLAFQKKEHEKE
Put plainly: fluorescence polarisation.

Test [8] has as its target T5, Cbx6 chromodomain, Cbx6-(8–65) (human, UniProt O95503 8-65).
T5 sequence: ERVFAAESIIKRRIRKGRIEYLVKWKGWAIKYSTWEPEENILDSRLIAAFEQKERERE
Put plainly: fluorescence polarisation.

In test [9] the target is T1, Cbx7 chromodomain, Cbx7-(8–62). Put plainly: fluorescence polarisation.
In test [10] the target is T3, Cbx8 chromodomain, Cbx8-(8–61). In words: fluorescence polarisation.
For test [11], the target named is T6, His6-tagged Cbx7 chromodomain (peptide arrays) (human, UniProt O95931 8-62).
T6 sequence: T1 sequence
Put plainly: peptide or protein array.

Chain of His6-tagged Cbx3 chromodomain (peptide arrays) (Q13185 29-81): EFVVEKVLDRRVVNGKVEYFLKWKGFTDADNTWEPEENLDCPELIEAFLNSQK
Chain of Cbx1 chromodomain, Cbx1-(20–73) (P83916 20-73): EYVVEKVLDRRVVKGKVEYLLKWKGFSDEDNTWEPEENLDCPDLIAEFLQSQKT
Chain of Cbx5 chromodomain, Cbx5-(18–75) (P45973 18-75): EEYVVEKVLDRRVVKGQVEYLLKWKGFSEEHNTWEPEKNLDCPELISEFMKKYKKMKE

As for TKHTAR[Lys(Me3)]STGGKA (also: held on a cellulose membrane through a polyethylglycol linker) [histone H3 residues 3–15, K9me3, Gln-5 to His array peptide], in test [1], the binding result is “binds”.

Turning to RGFAL[Lys(Me3)]STHG [SETDB1 peptide 1165-RGFALKme3STHG], the dissociation constant (Kd) in test [2] was 5 µM.

Regarding ARTKQTARKSTGGKA (trimethyllysine at 9; fluorescein on the N-terminus) [H3K9Me3 peptide (ARTKQTARK(me3)STGGKA), fluorescein-labeled], the dissociation constant (Kd) in test [3] is 5 µM; in test [4], 70 µM; in [5], 30 µM.

Regarding HGIAI[Lys(Me3)]STN [SETDB1 peptide HGIAIKme3STN], the values for the Kd in test [2] and in test [6] were 5 µM and 37 µM, respectively.

TKNTAR[Lys(Me3)]STGGKA (also: held on a cellulose membrane through a polyethylglycol linker) [histone H3 residues 3–15, K9me3, Gln-5 to Asn array peptide]: the binding result in [1] is recorded as “binds”.

fluorescein-QLATKTAR[Lys(Me3)]SAPATG [H3K27Me3A24T peptide (QLATKTARK(me3)SAPATG), fluorescein-labeled]: the Kd in test [7] is 330 µM; in test [4], 250 µM; in [8], above 500 µM; in test [9], 210 µM; in test [10], above 500 µM.

With QLATKAARKSAPATG (trimethyllysine at 27; fluorescein on the N-terminus) [H3K27Me3 peptide (QLATKAARK(me3)SAPATG), fluorescein-labeled], the dissociation constant (Kd) was 185 µM in test [7]; 205 µM in test [4]; above 500 µM in [8]; 110 µM in test [9]; above 500 µM in test [10].

With ATKAAR[Lys(Me3)]SAPATG (also: held on a cellulose membrane through a polyethylglycol linker) [histone H3 residues 21–33 with trimethylated Lys-27, membrane-immobilized array peptide], the binding result in [11] is listed as “binds”.

On to TKQVAR[Lys(Me3)]STGGKA (also: held on a cellulose membrane through a polyethylglycol linker) [histone H3 residues 3–15, K9me3, T6V array peptide], for which the binding result in [1] was “binds”.

With TKCTAR[Lys(Me3)]STGGKA (also: held on a cellulose membrane through a polyethylglycol linker) [histone H3 residues 3–15, K9me3, Gln-5 to Cys array peptide], the binding result in test [1] is “binds”.

Turning to RQVAV[Lys(Me3)]STR [SETDB1 peptide RQVAVKme3STR], the results for the equilibrium dissociation constant (Kd) in test [2] and in [6] were 43 µM and 98 µM, respectively.

In the case of fluorescein-ARTKQAAR[Lys(Me3)]STGGKA [H3K9Me3T6A peptide (ARTKQAARK(me3)STGGKA), fluorescein-labeled], the Kd in test [3] amounted to 45 µM; in test [4], 80 µM; in test [9] it was 140 µM.

With TKQTAR[Lys(Me3)]STGGKA (also: held on a cellulose membrane through a polyethylglycol linker) [histone H3 residues 3–15 with trimethylated Lys-9, membrane-immobilized array peptide], the binding result in test [1] and in test [11] was “binds” throughout.

The term Kd denotes the equilibrium constant for the complex coming apart. Read a high Kd as weaker binding.

The record behind these values is publication PMC3013012 (The Journal of Biological Chemistry, 2010).
